Test results as given in the RNAGym collection of RNA variant scans (doi:10.1093/molbev/msab373).

B1: Azoarcus group I ribozyme (parent)
chain: GUGCCUUGCGCCGGGAAACCACGCAAGGGAUGGUGUCAAAUUCGGCGAAACCUAAGCGCCCGCCCGGGCGUAUGGCAACGCCGAGCCAAGCUUCGGCGCCUGCGCCGAUGAAGGUGUAGAGACUAGACGGCACCCACCUAAGGCAAACGCUAUGGUGAAGGCAUAGUCCAGGGAGUGGCGAAAGUCACACAAACCGG

Variants of: B1
Assay: reverse-splicing fitness (ratio to wild type); higher = more active; in vitro selection; Mg2+ level not given
How it was run: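 An in vitro group I ribozyme library with randomized positions was T7-transcribed and gel-purified. In triplicate, 10 pmol RNA in EPPS pH 7.5 was reacted with 50 pmoles of a 30-nt RNA substrate for 1 h at 37 °C across several added MgCl2 levels (1–48 mM), then stopped with EDTA. Products were reverse transcribed from a substrate-complementary primer, PCR-amplified and sequenced (HiSeq 4000). Fitness is a variant's read proportion after selection over that before, normalised to wild type.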
In the case of C82U A111U A120C A145C C150A C169A, the reverse-splicing fitness is reported as 0.00749. Work on C82U A111U A120C A145C C150A C169G yielded a reverse-splicing fitness of 0.00632. C82U A111U A120C A145C C150A C169U showed a reverse-splicing fitness of 0.0102. With C82U A111G A145U the reverse-splicing fitness was 0.462. C82U A111U A120C A145G C150A U176A gave a reverse-splicing fitness of 0.0105. C82U A111U A120C A145G C150A U176C showed a reverse-splicing fitness of 0.0207. Variant C82U A111U A120C A145G C150A U176G has a reverse-splicing fitness of 0.00675. With C82U A111U A120C A145U C150U C169U U176A the reverse-splicing fitness was 0.0145. Work on C82U A111U A120C A145U C150U C169U U176G yielded a reverse-splicing fitness of 0.00516. C82U A111U A120C A145U C150U C169U U176C showed a reverse-splicing fitness of 0.0157. Variant C82U A111G C150A U176C has a reverse-splicing fitness of 0.0361. With C82U A111G C150A U176G the reverse-splicing fitness was 0.0117. C82U A111G C150A U176A gave a reverse-splicing fitness of 0.0272. Variant C82U A111G C169U U176G has a reverse-splicing fitness of 0.00449. In the case of C82U A111G C169U U176A, the reverse-splicing fitness is reported as 0.0145. Variant C82U A111G C169U U176C has a reverse-splicing fitness of 0.0132. Work on C82U A111U A120C A145G U176G yielded a reverse-splicing fitness of 0.00517. Work on C82U A111U A120C A145G U176C yielded a reverse-splicing fitness of 0.0219. C82U A111U A120C A145G U176A showed a reverse-splicing fitness of 0.0152. In the case of C82U A111G A145G U176C, the reverse-splicing fitness is reported as 0.265. C82U A111G A145G U176G gave a reverse-splicing fitness of 0.048. Variant C82U A111G A145G U176A has a reverse-splicing fitness of 0.201. C82U A111U A120C A145G C169G U176G showed a reverse-splicing fitness of 0.00473. C82U A111U A120C A145G C169G U176A showed a reverse-splicing fitness of 0.0152. Variant C82U A111U A120C A145G C169G U176C has a reverse-splicing fitness of 0.0209. Work on C82U A111G A145U C150G C169G U176C yielded a reverse-splicing fitness of 0.00527. Work on C82U A111G A145U C150G C169G U176A yielded a reverse-splicing fitness of 0.00668. With C82U A111G A145U C150G C169G U176G the reverse-splicing fitness was 0.00515. Variant C82U A111U A120C A145U C169G U176C has a reverse-splicing fitness of 0.00955. Variant C82U A111U A120C A145U C169G U176G has a reverse-splicing fitness of 0.00433. Work on C82U A111U A120C A145U C169G U176A yielded a reverse-splicing fitness of 0.00882. In the case of C82U A111U A120C A145G C150U C169G, the reverse-splicing fitness is reported as 0.00811. For C82U A111U A120C A145G C150U C169A, the reverse-splicing fitness was 0.00982. In the case of C82U A111U A120C A145G C150U C169U, the reverse-splicing fitness is reported as 0.0108. Variant C82U A111G A145U C150A has a reverse-splicing fitness of 0.0335. In the case of C82U A111G A145U C150G, the reverse-splicing fitness is reported as 0.0379. For C82U A111G A145U C150U, the reverse-splicing fitness was 0.276. For C82U A111U A120C A145U C150U C169A U176G, the reverse-splicing fitness was 0.00505. For C82U A111U A120C A145U C150U C169A U176A, the reverse-splicing fitness was 0.0119. Variant C82U A111U A120C A145U C150U C169A U176C has a reverse-splicing fitness of 0.00781. C82U A111G C150U C169U U176A showed a reverse-splicing fitness of 0.0126. With C82U A111G C150U C169U U176C the reverse-splicing fitness was 0.0133. Work on C82U A111G C150U C169U U176G yielded a reverse-splicing fitness of 0.00589. Variant C82U A111U A120C A145G has a reverse-splicing fitness of 0.03. For C82U A111U A120C A145U, the reverse-splicing fitness was 0.0286. Variant C82U A111U A120C A145C has a reverse-splicing fitness of 0.0238. C82U A111G C150U C169A U176C showed a reverse-splicing fitness of 0.0135. C82U A111G C150U C169A U176A gave a reverse-splicing fitness of 0.0145. C82U A111G C150U C169A U176G showed a reverse-splicing fitness of 0.00543. C82U A111G C150G C169U U176C gave a reverse-splicing fitness of 0.0122. Variant C82U A111G C150G C169U U176G has a reverse-splicing fitness of 0.00511. In the case of C82U A111G C150G C169U U176A, the reverse-splicing fitness is reported as 0.00707. C82U A111G A145U C150U C169G U176A showed a reverse-splicing fitness of 0.0118. Work on C82U A111G A145U C150U C169G U176G yielded a reverse-splicing fitness of 0.00489. With C82U A111G A145U C150U C169G U176C the reverse-splicing fitness was 0.0105. Variant C82U A111G C150U C169G has a reverse-splicing fitness of 0.0092. C82U A111G C150U C169U gave a reverse-splicing fitness of 0.0108. Variant C82U A111G C150U C169A has a reverse-splicing fitness of 0.00959. For C82U A111U A120C A145G C169A U176A, the reverse-splicing fitness was 0.0202. Work on C82U A111U A120C A145G C169A U176C yielded a reverse-splicing fitness of 0.0232. For C82U A111U A120C A145G C169A U176G, the reverse-splicing fitness was 0.00456. C82U A111G C169G U176G gave a reverse-splicing fitness of 0.00463. Work on C82U A111G C169G U176A yielded a reverse-splicing fitness of 0.0159. Work on C82U A111G C169G U176C yielded a reverse-splicing fitness of 0.0183. Work on C82U A111U A120C A145G C150G C169U U176G yielded a reverse-splicing fitness of 0.00719. In the case of C82U A111U A120C A145G C150G C169U U176A, the reverse-splicing fitness is reported as 0.0113. With C82U A111U A120C A145G C150G C169U U176C the reverse-splicing fitness was 0.0128. In the case of C82U A111G C150G C169A, the reverse-splicing fitness is reported as 0.00812. Variant C82U A111G C150G C169U has a reverse-splicing fitness of 0.00811. For C82U A111G C150G C169G, the reverse-splicing fitness was 0.00675. C82U A111U A120C A145G C150U C169U U176A gave a reverse-splicing fitness of 0.0159. Work on C82U A111U A120C A145G C150U C169U U176C yielded a reverse-splicing fitness of 0.0155. C82U A111U A120C A145G C150U C169U U176G gave a reverse-splicing fitness of 0.00474. In the case of C82U A111U A120C A145G C150G U176G, the reverse-splicing fitness is reported as 0.00575. For C82U A111U A120C A145G C150G U176A, the reverse-splicing fitness was 0.00644. For C82U A111U A120C A145G C150G U176C, the reverse-splicing fitness was 0.0109. C82U A111U A120C A145C C150A C169A U176G gave a reverse-splicing fitness of 0.00538. C82U A111U A120C A145C C150A C169A U176A gave a reverse-splicing fitness of 0.00878. With C82U A111U A120C A145C C150A C169A U176C the reverse-splicing fitness was 0.0057. Variant C82U A111G A145U C150U C169U U176G has a reverse-splicing fitness of 0.0051. Work on C82U A111G A145U C150U C169U U176C yielded a reverse-splicing fitness of 0.0118. C82U A111G A145U C150U C169U U176A showed a reverse-splicing fitness of 0.0117. With C82U A111G C150A C169A U176A the reverse-splicing fitness was 0.0183.
